Data published in IntAct's records for PubMed 21642537.

B1: Polycystin-2 (Homo sapiens), Q13563-1 (parent)
chain: MVNSSRVQPQQPGDAKRPPAPRAPDPGRLMAGCAAVGASLAAPGGLCEQRGLEIEMQRIRQAAARDPPAGAAASPSPPLSSCSRQAWSRDNPGFEAEEEEEEVEGEEGGMVVEMDVEWRPGSRRSAASSAVSSVGARSRGLGGYHGAGHPSGRRRRREDQGPPCPSPVGGGDPLHRHLPLEGQPPRVAWAERLVRGLRGLWGTRLMEESSTNREKYLKSVLRELVTYLLFLIVLCILTYGMMSSNVYYYTRMMSQLFLDTPVSKTEKTNFKTLSSMEDFWKFTEGSLLDGLYWKMQPSNQTEADNRSFIFYENLLLGVPRIRQLRVRNGSCSIPQDLRDEIKECYDVYSVSSEDRAPFGPRNGTAWIYTSEKDLNGSSHWGIIATYSGAGYYLDLSRTREETAAQVASLKKNVWLDRGTRATFIDFSVYNANINLFCVVRLLVEFPATGGVIPSWQFQPLKLIRYVTTFDFFLAACEIIFCFFIFYYVVEEILEIRIHKLHYFRSFWNCLDVVIVVLSVVAIGINIYRTSNVEVLLQFLEDQNTFPNFEHLAYWQIQFNNIAAVTVFFVWIKLFKFINFNRTMSQLSTTMSRCAKDLFGFAIMFFIIFLAYAQLAYLVFGTQVDDFSTFQECIFTQFRIILGDINFAEIEEANRVLGPIYFTTFVFFMFFILLNMFLAIINDTYSEVKSDLAQQKAEMELSDLIRKGYHKALVKLKLKKNTVDDISESLRQGGGKLNFDELRQDLKGKGHTDAEIEAIFTKYDQDGDQELTEHEHQQMRDDLEKEREDLDLDHSSLPRPMSSRSFPRSLDDSEEDDDEDSGHSSRRRGSISSGVSYEEFQVLVRRVDRMEHSIGSIVSKIDAVIVKLEIMERAKLKRREVLGRLLDGVAEDERLGRDSEIHREQMERLVREELERWESDDAASQISHGLGTPVGLNGQPRPRSSRPSSSQSTEGMEGAGGNGSSNVHV

Variants of: B1
Details: with PKD1, P98161-3
Sequence of PKD1, P98161-3 (P98161 whole entry, looked up): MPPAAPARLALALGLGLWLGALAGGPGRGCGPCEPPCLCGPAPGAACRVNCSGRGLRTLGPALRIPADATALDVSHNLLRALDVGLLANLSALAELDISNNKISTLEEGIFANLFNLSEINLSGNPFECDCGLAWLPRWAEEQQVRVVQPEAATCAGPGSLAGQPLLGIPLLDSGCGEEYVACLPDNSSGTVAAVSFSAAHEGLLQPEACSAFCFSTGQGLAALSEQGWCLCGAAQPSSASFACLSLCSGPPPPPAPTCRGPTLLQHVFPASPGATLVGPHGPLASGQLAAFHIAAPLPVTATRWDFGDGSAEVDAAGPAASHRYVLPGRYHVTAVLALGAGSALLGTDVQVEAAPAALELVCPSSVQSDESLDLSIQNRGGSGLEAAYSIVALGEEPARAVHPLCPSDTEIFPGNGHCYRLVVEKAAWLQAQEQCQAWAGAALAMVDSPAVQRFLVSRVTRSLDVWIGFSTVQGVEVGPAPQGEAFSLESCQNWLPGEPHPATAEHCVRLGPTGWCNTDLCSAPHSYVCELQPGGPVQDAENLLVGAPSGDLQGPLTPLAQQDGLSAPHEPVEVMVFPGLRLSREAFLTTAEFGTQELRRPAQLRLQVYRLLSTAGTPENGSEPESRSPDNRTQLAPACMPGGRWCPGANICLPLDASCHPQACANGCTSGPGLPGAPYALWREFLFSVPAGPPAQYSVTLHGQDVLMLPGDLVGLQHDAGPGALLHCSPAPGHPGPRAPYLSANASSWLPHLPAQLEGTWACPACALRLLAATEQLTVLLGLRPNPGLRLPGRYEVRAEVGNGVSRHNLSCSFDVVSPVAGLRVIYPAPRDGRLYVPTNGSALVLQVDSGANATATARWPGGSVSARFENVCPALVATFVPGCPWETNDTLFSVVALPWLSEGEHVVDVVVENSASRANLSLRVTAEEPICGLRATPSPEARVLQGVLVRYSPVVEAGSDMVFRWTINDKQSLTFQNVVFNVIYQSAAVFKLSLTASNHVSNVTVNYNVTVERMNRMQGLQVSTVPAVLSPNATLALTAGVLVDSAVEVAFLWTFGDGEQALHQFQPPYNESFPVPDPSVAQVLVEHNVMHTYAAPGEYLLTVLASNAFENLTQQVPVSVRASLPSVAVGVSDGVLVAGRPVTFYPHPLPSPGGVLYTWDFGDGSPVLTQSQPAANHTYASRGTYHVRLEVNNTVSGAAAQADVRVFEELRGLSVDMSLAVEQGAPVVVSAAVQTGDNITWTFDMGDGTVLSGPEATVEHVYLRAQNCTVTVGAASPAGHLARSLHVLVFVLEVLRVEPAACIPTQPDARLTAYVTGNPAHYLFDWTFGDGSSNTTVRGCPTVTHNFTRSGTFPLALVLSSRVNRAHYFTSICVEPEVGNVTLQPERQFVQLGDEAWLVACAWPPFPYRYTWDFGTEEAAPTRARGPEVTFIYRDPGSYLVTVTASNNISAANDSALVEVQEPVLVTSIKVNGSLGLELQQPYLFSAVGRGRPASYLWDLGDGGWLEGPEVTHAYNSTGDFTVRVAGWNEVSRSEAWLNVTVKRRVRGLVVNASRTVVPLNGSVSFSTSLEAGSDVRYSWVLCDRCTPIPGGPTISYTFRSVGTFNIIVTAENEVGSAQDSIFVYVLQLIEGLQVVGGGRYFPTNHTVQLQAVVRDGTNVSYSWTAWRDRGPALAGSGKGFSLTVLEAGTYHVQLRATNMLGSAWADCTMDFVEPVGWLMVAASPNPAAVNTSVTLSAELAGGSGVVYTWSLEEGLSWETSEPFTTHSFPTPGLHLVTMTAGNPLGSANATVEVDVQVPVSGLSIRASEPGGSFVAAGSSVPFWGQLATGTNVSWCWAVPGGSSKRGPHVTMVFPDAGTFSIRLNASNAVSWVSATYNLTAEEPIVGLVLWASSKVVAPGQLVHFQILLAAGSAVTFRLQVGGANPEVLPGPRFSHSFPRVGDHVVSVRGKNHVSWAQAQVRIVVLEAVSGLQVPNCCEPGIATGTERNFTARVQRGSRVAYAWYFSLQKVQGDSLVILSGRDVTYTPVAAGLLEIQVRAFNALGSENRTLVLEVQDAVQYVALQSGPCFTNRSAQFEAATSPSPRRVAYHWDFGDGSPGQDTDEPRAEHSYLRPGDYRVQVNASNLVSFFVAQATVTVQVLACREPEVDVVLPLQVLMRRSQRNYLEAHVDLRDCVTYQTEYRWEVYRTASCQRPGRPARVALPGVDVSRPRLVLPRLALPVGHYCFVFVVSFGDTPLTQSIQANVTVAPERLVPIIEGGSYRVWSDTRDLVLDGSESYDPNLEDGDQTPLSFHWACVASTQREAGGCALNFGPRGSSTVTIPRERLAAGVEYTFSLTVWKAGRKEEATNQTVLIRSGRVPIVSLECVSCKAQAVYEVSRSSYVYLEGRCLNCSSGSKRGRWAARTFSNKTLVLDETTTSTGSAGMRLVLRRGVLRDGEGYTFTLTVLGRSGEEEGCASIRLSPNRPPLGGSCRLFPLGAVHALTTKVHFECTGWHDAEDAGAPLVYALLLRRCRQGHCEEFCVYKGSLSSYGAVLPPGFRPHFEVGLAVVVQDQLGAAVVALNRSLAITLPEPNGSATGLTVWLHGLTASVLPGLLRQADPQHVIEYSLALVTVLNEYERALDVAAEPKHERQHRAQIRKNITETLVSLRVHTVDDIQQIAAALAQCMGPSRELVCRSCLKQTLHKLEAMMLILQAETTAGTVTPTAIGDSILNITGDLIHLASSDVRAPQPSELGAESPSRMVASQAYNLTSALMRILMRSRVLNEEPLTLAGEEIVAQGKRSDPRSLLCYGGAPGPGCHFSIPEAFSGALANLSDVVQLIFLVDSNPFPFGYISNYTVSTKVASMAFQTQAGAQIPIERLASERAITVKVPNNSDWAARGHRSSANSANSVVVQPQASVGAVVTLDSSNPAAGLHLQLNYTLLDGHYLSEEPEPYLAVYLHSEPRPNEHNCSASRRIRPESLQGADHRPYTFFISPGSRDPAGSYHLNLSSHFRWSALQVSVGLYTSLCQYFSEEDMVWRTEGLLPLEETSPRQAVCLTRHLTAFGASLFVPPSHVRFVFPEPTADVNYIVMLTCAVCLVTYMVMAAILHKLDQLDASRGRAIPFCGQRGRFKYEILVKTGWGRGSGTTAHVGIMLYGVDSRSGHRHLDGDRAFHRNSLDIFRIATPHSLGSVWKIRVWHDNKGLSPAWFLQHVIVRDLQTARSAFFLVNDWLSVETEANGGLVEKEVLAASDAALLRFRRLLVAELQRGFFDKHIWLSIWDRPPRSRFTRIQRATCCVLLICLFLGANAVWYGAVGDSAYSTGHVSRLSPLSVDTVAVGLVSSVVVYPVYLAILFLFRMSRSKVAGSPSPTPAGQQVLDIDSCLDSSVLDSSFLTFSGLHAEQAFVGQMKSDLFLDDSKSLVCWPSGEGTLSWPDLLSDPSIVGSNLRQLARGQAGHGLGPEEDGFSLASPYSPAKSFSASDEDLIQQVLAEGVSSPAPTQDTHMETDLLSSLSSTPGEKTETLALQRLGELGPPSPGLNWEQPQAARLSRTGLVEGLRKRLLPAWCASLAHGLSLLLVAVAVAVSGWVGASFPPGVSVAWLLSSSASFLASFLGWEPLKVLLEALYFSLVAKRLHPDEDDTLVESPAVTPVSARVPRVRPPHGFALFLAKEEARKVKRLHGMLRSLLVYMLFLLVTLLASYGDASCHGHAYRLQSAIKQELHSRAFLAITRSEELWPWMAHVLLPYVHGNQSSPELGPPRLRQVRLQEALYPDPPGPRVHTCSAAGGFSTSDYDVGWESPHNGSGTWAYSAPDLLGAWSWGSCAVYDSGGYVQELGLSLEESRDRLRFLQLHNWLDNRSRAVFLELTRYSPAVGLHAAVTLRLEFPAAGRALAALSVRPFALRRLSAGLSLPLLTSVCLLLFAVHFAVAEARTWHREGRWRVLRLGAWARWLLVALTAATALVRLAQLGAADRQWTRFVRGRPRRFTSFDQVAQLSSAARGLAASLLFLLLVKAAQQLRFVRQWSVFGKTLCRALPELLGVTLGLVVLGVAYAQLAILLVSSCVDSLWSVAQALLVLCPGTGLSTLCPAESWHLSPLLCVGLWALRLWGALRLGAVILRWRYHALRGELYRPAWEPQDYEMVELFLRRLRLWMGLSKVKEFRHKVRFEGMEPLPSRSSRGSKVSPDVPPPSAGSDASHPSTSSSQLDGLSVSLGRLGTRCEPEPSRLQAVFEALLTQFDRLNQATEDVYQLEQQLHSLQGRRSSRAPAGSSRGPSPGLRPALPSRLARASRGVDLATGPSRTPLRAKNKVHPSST

| effect of a mutation on the interaction | Variant |
| --- | --- |
| decreasing interaction strength | L881D;L885D |
| decreasing interaction strength | V880A;L881A;L885A |
| decreasing interaction strength | R877A;R878A |
| disrupting interaction strength | R877G;R878G |
| disrupting interaction strength | L881A;L885A |
| decreasing interaction strength | D861A;I864A;V865A |
| decreasing interaction strength | K876A;R877A;R878A;E879A |

The remaining lines, values behind:

| Variant | effect of a mutation on the interaction |
| --- | --- |
| K876G;R877G;R878G;E879G | decreasing interaction strength |
| K876A;R877A | decreasing interaction strength |
| R883A;L884A | decreasing interaction strength |
| V865A;I869A | decreasing interaction strength |

Variants of: B1
Details: with pkd1_mouse Pkd1, O08852

| effect of a mutation on the interaction | Variant |
| --- | --- |
| decreasing interaction strength | V880A;L881A;L885A |
| decreasing interaction strength | L881A;L885A |
